Assay results: IntAct's records for PubMed 24510189

B1: mRNA-decapping enzyme 1A (Homo sapiens), Q9NPI6 (parent)
chain: MEALSRAGQEMSLAALKQHDPYITSIADLTGQVALYTFCPKANQWEKTDIEGTLFVYRRSASPYHGFTIVNRLNMHNLVEPVNKDLEFQLHEPFLLYRNASLSIYSIWFYDKNDCHRIAKLMADVVEEETRRSQQAARDKQSPSQANGCSDHRPIDILEMLSRAKDEYERNQMGDSNISSPGLQPSTQLSNLGSTETLEEMPSGSQDKSAPSGHKHLTVEELFGTSLPKEQPAVVGLDSEEMERLPGDASQKEPNSFLPFPFEQLGGAPQSETLGVPSAAHHSVQPEITTPVLITPASITQSNEKHAPTYTIPLSPVLSPTLPAEAPTAQVPPSLPRNSTMMQAVKTTPRQRSPLLNQPVPELSHASLIANQSPFRAPLNVTNTAGTSLPSVDLLQKLRLTPQHDQIQTQPLGKGAMVASFSPAAGQLATPESFIEPPSKTAAARVAASASLSNMVLAPLQSMQQNQDPEVFVQPKVLSSAIPVAGAPLVTATTTAVSSVLLAPSVFQQTVTRSSDLERKASSPSPLTIGTPESQRKPSIILSKSQLQDTLIHLIKNDSSFLSTLHEVYLQVLTKNKDNHNL
partner: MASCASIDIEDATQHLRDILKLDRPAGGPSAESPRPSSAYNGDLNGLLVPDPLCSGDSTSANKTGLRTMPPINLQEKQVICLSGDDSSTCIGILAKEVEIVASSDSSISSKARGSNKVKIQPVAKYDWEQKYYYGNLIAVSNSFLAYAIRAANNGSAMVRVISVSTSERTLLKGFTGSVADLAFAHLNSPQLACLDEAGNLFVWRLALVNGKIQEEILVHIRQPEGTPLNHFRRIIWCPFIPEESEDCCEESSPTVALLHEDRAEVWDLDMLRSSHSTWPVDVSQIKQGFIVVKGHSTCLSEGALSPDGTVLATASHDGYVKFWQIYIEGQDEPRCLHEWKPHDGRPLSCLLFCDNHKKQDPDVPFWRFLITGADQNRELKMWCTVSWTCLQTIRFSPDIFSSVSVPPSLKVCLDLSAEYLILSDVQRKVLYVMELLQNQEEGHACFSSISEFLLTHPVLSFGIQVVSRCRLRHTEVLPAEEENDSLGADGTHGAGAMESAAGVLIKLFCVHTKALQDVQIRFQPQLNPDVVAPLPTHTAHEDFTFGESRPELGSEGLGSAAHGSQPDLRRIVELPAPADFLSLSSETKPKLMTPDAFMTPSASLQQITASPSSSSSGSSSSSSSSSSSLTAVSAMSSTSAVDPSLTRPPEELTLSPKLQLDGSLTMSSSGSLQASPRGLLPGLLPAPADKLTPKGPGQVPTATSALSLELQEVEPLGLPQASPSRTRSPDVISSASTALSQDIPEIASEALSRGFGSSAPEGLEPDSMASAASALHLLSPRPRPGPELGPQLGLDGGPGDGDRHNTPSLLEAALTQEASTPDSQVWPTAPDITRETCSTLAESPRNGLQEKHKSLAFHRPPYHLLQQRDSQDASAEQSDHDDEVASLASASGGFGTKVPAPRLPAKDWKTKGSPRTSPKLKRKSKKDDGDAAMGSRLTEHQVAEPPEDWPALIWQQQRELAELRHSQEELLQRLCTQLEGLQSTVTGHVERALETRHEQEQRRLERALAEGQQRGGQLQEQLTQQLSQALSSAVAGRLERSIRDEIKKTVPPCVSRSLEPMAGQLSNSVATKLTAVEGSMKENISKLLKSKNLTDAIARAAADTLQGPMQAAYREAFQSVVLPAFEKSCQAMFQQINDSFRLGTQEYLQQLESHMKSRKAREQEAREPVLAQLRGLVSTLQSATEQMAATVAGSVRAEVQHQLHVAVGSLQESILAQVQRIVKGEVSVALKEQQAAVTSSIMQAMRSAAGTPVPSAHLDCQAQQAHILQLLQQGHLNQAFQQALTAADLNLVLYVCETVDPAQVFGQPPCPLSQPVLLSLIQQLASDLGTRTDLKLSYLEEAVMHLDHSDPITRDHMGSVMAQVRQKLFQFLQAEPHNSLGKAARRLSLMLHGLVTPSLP

Variants of: B1
Conditions: with edc4_human EDC4, Q6P2E9

Effect of a mutation on the interaction, with no effect:
MEALSRAGQEMSLAALKQADPYITSIADLTGQVALYTFCPKANQWEKTDIEGTLFVYRRSASPYHGFTIVNRLNMHNLVEPVNKDLEFQLHEPFLLYRNASLSIYSIWFYDKNDCHRIAKLMADVVEEETRRSQQAARDKQSPSQANGCSDHRPIDILEMLSRAKDEYERNQMGDSNISSPGLQPSTQLSNLGSTETLEEMPSGSQDKSAPSGHKHLTVEELFGTSLPKEQPAVVGLDSEEMERLPGDASQKEPNSFLPFPFEQLGGAPQSETLGVPSAAHHSVQPEITTPVLITPASITQSNEKHAPTYTIPLSPVLSPTLPAEAPTAQVPPSLPRNSTMMQAVKTTPRQRSPLLNQPVPELSHASLIANQSPFRAPLNVTNTAGTSLPSVDLLQKLRLTPQHDQIQTQPLGKGAMVASFSPAAGQLATPESFIEPPSKTAAARVAASASLSNMVLAPLQSMQQNQDPEVFVQPKVLSSAIPVAGAPLVTATTTAVSSVLLAPSVFQQTVTRSSDLERKASSPSPLTIGTPESQRKPSIILSKSQLQDTLIHLIKNDSSFLSTLHEVYLQVLTKNKDNHNL [H19A]
MEALSRAGQEMALAALKQADPYITSIADLTGQVALYTFCPKANQWEKTDIEGTLFVYRRSASPYHGFTIVNRLNMHNLVEPVNKDLEFQLHEPFLLYRNASLSIYSIWFYDKNDCHRIAKLMADVVEEETRRSQQAARDKQSPSQANGCSDHRPIDILEMLSRAKDEYERNQMGDSNISSPGLQPSTQLSNLGSTETLEEMPSGSQDKSAPSGHKHLTVEELFGTSLPKEQPAVVGLDSEEMERLPGDASQKEPNSFLPFPFEQLGGAPQSETLGVPSAAHHSVQPEITTPVLITPASITQSNEKHAPTYTIPLSPVLSPTLPAEAPTAQVPPSLPRNSTMMQAVKTTPRQRSPLLNQPVPELSHASLIANQSPFRAPLNVTNTAGTSLPSVDLLQKLRLTPQHDQIQTQPLGKGAMVASFSPAAGQLATPESFIEPPSKTAAARVAASASLSNMVLAPLQSMQQNQDPEVFVQPKVLSSAIPVAGAPLVTATTTAVSSVLLAPSVFQQTVTRSSDLERKASSPSPLTIGTPESQRKPSIILSKSQLQDTLIHLIKNDSSFLSTLHEVYLQVLTKNKDNHNL [S12A;H19A]
MEALSRAGQEMSLAALKQHDPYITSIADLTGQVALYTFCPKANQWEKTDIEGTLFVYRRSASPYHGFTIVNGLNMHNLVEPVNKDLEFQLHEPFLLYRNASLSIYSIWFYDKNDCHRIAKLMADVVEEETRRSQQAARDKQSPSQANGCSDHRPIDILEMLSRAKDEYERNQMGDSNISSPGLQPSTQLSNLGSTETLEEMPSGSQDKSAPSGHKHLTVEELFGTSLPKEQPAVVGLDSEEMERLPGDASQKEPNSFLPFPFEQLGGAPQSETLGVPSAAHHSVQPEITTPVLITPASITQSNEKHAPTYTIPLSPVLSPTLPAEAPTAQVPPSLPRNSTMMQAVKTTPRQRSPLLNQPVPELSHASLIANQSPFRAPLNVTNTAGTSLPSVDLLQKLRLTPQHDQIQTQPLGKGAMVASFSPAAGQLATPESFIEPPSKTAAARVAASASLSNMVLAPLQSMQQNQDPEVFVQPKVLSSAIPVAGAPLVTATTTAVSSVLLAPSVFQQTVTRSSDLERKASSPSPLTIGTPESQRKPSIILSKSQLQDTLIHLIKNDSSFLSTLHEVYLQVLTKNKDNHNL [R72G]
MEALSRAGQEMSLAALKAADPYITSIADLTGQVALYTFCPKANQWEKTDIEGTLFVYRRSASPYHGFTIVNRLNMHNLVEPVNKDLEFQLHEPFLLYRNASLSIYSIWFYDKNDCHRIAKLMADVVEEETRRSQQAARDKQSPSQANGCSDHRPIDILEMLSRAKDEYERNQMGDSNISSPGLQPSTQLSNLGSTETLEEMPSGSQDKSAPSGHKHLTVEELFGTSLPKEQPAVVGLDSEEMERLPGDASQKEPNSFLPFPFEQLGGAPQSETLGVPSAAHHSVQPEITTPVLITPASITQSNEKHAPTYTIPLSPVLSPTLPAEAPTAQVPPSLPRNSTMMQAVKTTPRQRSPLLNQPVPELSHASLIANQSPFRAPLNVTNTAGTSLPSVDLLQKLRLTPQHDQIQTQPLGKGAMVASFSPAAGQLATPESFIEPPSKTAAARVAASASLSNMVLAPLQSMQQNQDPEVFVQPKVLSSAIPVAGAPLVTATTTAVSSVLLAPSVFQQTVTRSSDLERKASSPSPLTIGTPESQRKPSIILSKSQLQDTLIHLIKNDSSFLSTLHEVYLQVLTKNKDNHNL [Q18A;H19A]
MEALSRAGQEMALAALKAADPYITSIADLTGQVALYTFCPKANQWEKTDIEGTLFVYRRSASPYHGFTIVNRLNMHNLVEPVNKDLEFQLHEPFLLYRNASLSIYSIWFYDKNDCHRIAKLMADVVEEETRRSQQAARDKQSPSQANGCSDHRPIDILEMLSRAKDEYERNQMGDSNISSPGLQPSTQLSNLGSTETLEEMPSGSQDKSAPSGHKHLTVEELFGTSLPKEQPAVVGLDSEEMERLPGDASQKEPNSFLPFPFEQLGGAPQSETLGVPSAAHHSVQPEITTPVLITPASITQSNEKHAPTYTIPLSPVLSPTLPAEAPTAQVPPSLPRNSTMMQAVKTTPRQRSPLLNQPVPELSHASLIANQSPFRAPLNVTNTAGTSLPSVDLLQKLRLTPQHDQIQTQPLGKGAMVASFSPAAGQLATPESFIEPPSKTAAARVAASASLSNMVLAPLQSMQQNQDPEVFVQPKVLSSAIPVAGAPLVTATTTAVSSVLLAPSVFQQTVTRSSDLERKASSPSPLTIGTPESQRKPSIILSKSQLQDTLIHLIKNDSSFLSTLHEVYLQVLTKNKDNHNL [S12A;Q18A;H19A]
